“And” between values parts separate entries of the source, which are not always exact repeats. Equal values may be shown once.
Experiments:
[1] = biological target: S36A mutant human apolipoprotein A-I, recombinant (human); assay: cross-linking
[2] = biological target: S36A mutant human apolipoprotein A-I, recombinant (human); assay: AUC
[3] = biological target: wild-type (WT) human apolipoprotein A-I, recombinant (human) (UniProt P02647); assay: native gel or EMSA
[4] = biological target: wild-type (WT) human apolipoprotein A-I, recombinant (human) (UniProt P02647); assay: AUC

Substance	stoichiometry N [1]	Ka [2] [M⁻¹]	stoichiometry N [2]	stoichiometry N [3]	Ka [4] [M⁻¹]
S36A mutant human apolipoprotein A-I, recombinant (natural protein)	2	6.12e+14	4	–	–
wild-type (WT) human apolipoprotein A-I, recombinant (from UniProt P02647 19-267) (natural protein)	–	–	–	2 and 4	8.56e+14
